Reference: patent publication US20260242478A1 (published 2026)

Tests used:
[1] = biological target: T1, Anti-CD28 Fab (SEQ ID NOs: 696, 697); experiment: phage ELISA as above with wells pre-incubated with CD28 antigen as competitor
T1 construct: In the phage ELISA the Fab was biotinylated and captured on neutravidin coated plates
T1 sequence (VH, as listed by the source, chain 1 of 2): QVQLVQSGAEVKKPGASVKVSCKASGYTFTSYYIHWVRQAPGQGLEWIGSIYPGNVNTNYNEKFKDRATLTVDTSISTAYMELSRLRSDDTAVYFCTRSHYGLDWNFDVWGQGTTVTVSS
T1 sequence (VL, as listed by the source, chain 2 of 2): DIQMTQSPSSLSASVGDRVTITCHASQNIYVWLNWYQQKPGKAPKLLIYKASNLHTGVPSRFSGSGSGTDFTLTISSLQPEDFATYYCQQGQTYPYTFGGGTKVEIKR
Method: (§1) After panning, phage infected bacteria were plated out and colonies picked into 96 well blocks. Clonal phage was then amplified and separated from bacterial cells via centrifugation.
(§2) Clonal phage were harvested as crude supematants and screened via standard ELISAs. […] Prior to the addition of clonal phage, wells were incubated with blocking buffer and CD28 antigen or blocking buffer alone. Without washing or aspirating, clonal phage supematants were then added to the wells and incubated for a short time. Wells were then washed followed by detection of bound phage using a horse radish conjugated anti-M13 antibody. Clonal phage of interest were then sent for sequence analysis.

[2] = biological target: T1, Anti-CD28 Fab (SEQ ID NOs: 696, 697); experiment: phage ELISA; biotinylated anti-CD28 Fab on neutravidin plate, clonal phage supernatant, anti-M13 HRP detection;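 further: crude supernatants of single phage clones picked after panning were screened for binding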
[3] = biological target: Anti-CD28 Fab (SEQ ID NOs: 696, 697); experiment: phage binding ELISA on Fab coated plate; CD28 antigen as competitor
Target sequence in this assay (VH, as listed by the source, chain 1 of 2): as the sequence (VH, as listed by the source, chain 1 of 2) above
Target sequence in this assay (VL, as listed by the source, chain 2 of 2): as the sequence (VL, as listed by the source, chain 2 of 2) above
Method: as §1, §2

[4] = biological target: Anti-CD28 Fab (SEQ ID NOs: 696, 697); experiment: phage binding ELISA; biotinylated Fab on neutravidin plate, anti-M13 HRP detection
Target sequence in this assay (VH, as listed by the source, chain 1 of 2): as the sequence (VH, as listed by the source, chain 1 of 2) above
Target sequence in this assay (VL, as listed by the source, chain 2 of 2): as the sequence (VL, as listed by the source, chain 2 of 2) above
Method: as §1, §2

[5] = biological target: T2, Anti-CD28 Fab (SEQ ID NOs: 696, 697); experiment: phage binding ELISA on captured Fab; competitor: CD28 antigen pre-incubated in the wells
T2 construct: Biotinylated and captured on neutravidin coated plates in the phage ELISA
T2 sequence (VH, as listed by the source, chain 1 of 2): as the sequence (VH, as listed by the source, chain 1 of 2) above
T2 sequence (VL, as listed by the source, chain 2 of 2): as the sequence (VL, as listed by the source, chain 2 of 2) above
Method: as §1, §2

[6] = biological target: T3, Anti-CD28 Fab (SEQ ID NOs: 696, 697); experiment: phage ELISA, clonal phage on biotinylated anti-CD28 Fab captured on neutravidin plates;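 further: crude clonal phage supernatants added to wells pretreated with CD28 antigen or with blocking buffer only, bound phage detected by HRP-linked anti-M13 antibody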
T3 construct: In the phage ELISA the Fab was biotinylated and captured on neutravidin coated plates
T3 sequence (VH, as listed by the source, chain 1 of 2): as the sequence (VH, as listed by the source, chain 1 of 2) above
T3 sequence (VL, as listed by the source, chain 2 of 2): as the sequence (VL, as listed by the source, chain 2 of 2) above
Method: as §1, §2

[7] = biological target: T3, Anti-CD28 Fab (SEQ ID NOs: 696, 697); experiment: phage ELISA on captured anti-CD28 Fab, wells pre-incubated with CD28 antigen as competitor;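 further: crude clonal phage supernatants added without washing, bound phage read out by HRP-coupled anti-M13 antibody, reference wells given blocking buffer only instead of CD28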
Method: as §1, §2

[8] = biological target: T4, Anti-CD28 Fab (SEQ ID NOs: 696, 697); experiment: phage ELISA; clonal phage on plate-captured biotinylated anti-CD28 Fab, anti-M13 HRP detection
T4 construct: Biotinylated and captured on neutravidin coated plates in the phage ELISA
T4 sequence (VH, as listed by the source, chain 1 of 2): as the sequence (VH, as listed by the source, chain 1 of 2) above
T4 sequence (VL, as listed by the source, chain 2 of 2): as the sequence (VL, as listed by the source, chain 2 of 2) above
Method: as §1, §2

[9] = biological target: T4, Anti-CD28 Fab (SEQ ID NOs: 696, 697); experiment: phage ELISA; clonal phage on plate-captured anti-CD28 Fab pre-incubated with CD28 antigen as competitor
Method: as §1, §2

| Binder | Anti-CD28 Fab signal in the presence of CD28 (phage binding ELISA) [1] | Anti-CD28 Fab signal (phage binding ELISA) [2] | Anti-CD28 Fab signal in the presence of CD28 [3] | Anti-CD28 Fab (SEQ ID NOs: 696, 697) signal [4] | also measured |
| --- | --- | --- | --- | --- | --- |
| YCDGHSLQYMSKCL (Tested as clonal phage supernatant) [Phage-1039] | 0.06 | 1.45 |  |  |  |
| YCQGHIEPYLAKCL (Tested as clonal phage supernatant) [Phage-1036] | 0.05 | 1.46 |  |  |  |
| YCAGHTQEYIEKCL [Phage-1029] |  |  | 0.06 | 1.47 |  |
| YCDGHLEIYMSKCL [Phage-1031] |  |  | 0.08 | 1.46 |  |
| YCEGHTPVYMPKCL [Phage-1035] |  |  | 0.06 | 1.46 |  |
| YCDGHKAEYMQKCL (tested as crude clonal phage supernatant) [Phage-1015 (Peptide-87 library peptide, SEQ ID NO: 1331)] |  |  |  |  | Anti-CD28 Fab signal in the presence of CD28 (phage binding ELISA) [5]: 0.06 |
| YCDGHSPAFIQKCL [Phage-1056] |  |  |  |  | Anti-CD28 Fab signal (phage binding ELISA) [6]: 1.42; Anti-CD28 Fab signal in the presence of CD28 (phage binding ELISA) [7]: 0.08 |
| YCDGHLPEYMNQCL (Tested as clonal phage supernatant) [Phage-1047] | 0.07 | 1.44 |  |  |  |
| YCEGHVLEYRGKCD [Phage-1026] |  |  | 0.09 | 1.48 |  |
| YCDGHLLEYMSKCL [Phage-1032] |  |  | 0.09 | 1.46 |  |
| YCEGHLPIYMEKCL (Tested as clonal phage supernatant) [Phage-1044] | 0.07 | 1.44 |  |  |  |
| YCDGHSPQYIQKCL (tested as crude clonal phage supernatant) [Phage-1016 (Peptide-87 library peptide, SEQ ID NO: 1332)] |  |  |  |  | Anti-CD28 Fab signal in the presence of CD28 (phage binding ELISA) [5]: 0.07 |
| YCAGHLPQYIQKCL (Tested as clonal phage supernatant) [Phage-1041] | 0.07 | 1.44 |  |  |  |
| YCEGHLPQYMTKCI (Tested as clonal phage supernatant) [Phage-1040] | 0.08 | 1.44 |  |  |  |
| YCAGHLEEYMWKCL (tested as crude clonal phage supernatant) [Phage-1009] |  |  |  |  | Phage binding ELISA, Anti-CD28 Fab signal [8]: 1.51; Phage binding ELISA, Anti-CD28 Fab signal in the presence of CD28 [9]: 0.08 |
| YCDGHLDEYMLKCL [Phage-1053] |  |  |  |  | Anti-CD28 Fab signal (phage binding ELISA) [6]: 1.43; Anti-CD28 Fab signal in the presence of CD28 (phage binding ELISA) [7]: 0.06 |
| YCEGHLDQYMTKCL [Phage-1028] |  |  | 0.08 | 1.47 |  |
| YCVGHLPQYMQKCL [Phage-1049] |  |  |  |  | Anti-CD28 Fab signal (phage binding ELISA) [6]: 1.43; Anti-CD28 Fab signal in the presence of CD28 (phage binding ELISA) [7]: 0.06 |
| YCEGHSLEHIAKCL [Phage-1034] |  |  | 0.07 | 1.46 |  |
| YCDGHLAIYIGKCL [Phage-1030] |  |  | 0.08 | 1.47 |  |
| YCEGHRPEYMQKCV [Phage-1024] |  |  | 0.09 | 1.48 |  |

| Binder | Anti-CD28 Fab signal in the presence of CD28 (phage binding ELISA) [1] | Anti-CD28 Fab signal (phage binding ELISA) [2] | Anti-CD28 Fab signal in the presence of CD28 [3] | Anti-CD28 Fab (SEQ ID NOs: 696, 697) signal [4] | also measured |
| --- | --- | --- | --- | --- | --- |
| YCDGHTPEYMWKCL [Phage-1054] |  |  |  |  | Anti-CD28 Fab signal (phage binding ELISA) [6]: 1.43; Anti-CD28 Fab signal in the presence of CD28 (phage binding ELISA) [7]: 0.06 |
| YCLGHSWPYIHKCY [Phage-1052] |  |  |  |  | Anti-CD28 Fab signal (phage binding ELISA) [6]: 1.43; Anti-CD28 Fab signal in the presence of CD28 (phage binding ELISA) [7]: 0.07 |
| YCDGHLALHMKKCL (tested as crude clonal phage supernatant) [Phage-1019 (Peptide-87 library peptide, SEQ ID NO: 1335)] |  |  |  |  | Anti-CD28 Fab signal in the presence of CD28 (phage binding ELISA) [5]: 0.08 |
| YCEGHSQQYMQKCL [Phage-1055] |  |  |  |  | Anti-CD28 Fab signal (phage binding ELISA) [6]: 1.42; Anti-CD28 Fab signal in the presence of CD28 (phage binding ELISA) [7]: 0.08 |
| YCDGHSLEYIEKCL [Phage-1051] |  |  |  |  | Anti-CD28 Fab signal (phage binding ELISA) [6]: 1.43; Anti-CD28 Fab signal in the presence of CD28 (phage binding ELISA) [7]: 0.06 |
| YCDGHAEEYMAKCL (Tested as clonal phage supernatant) [Phage-1038] | 0.06 | 1.45 |  |  |  |
| YCEGHSQEYMAKCL (Tested as clonal phage supernatant) [Phage-1046] | 0.06 | 1.44 |  |  |  |
| YCDGHLPEYIAKCQ [Phage-1050] |  |  |  |  | Anti-CD28 Fab signal (phage binding ELISA) [6]: 1.43; Anti-CD28 Fab signal in the presence of CD28 (phage binding ELISA) [7]: 0.07 |
| YCDGHSLEYMVKCL [Phage-1033] |  |  | 0.06 | 1.46 |  |
| YCDGHLAIYMWKCL (Tested as clonal phage supernatant) [Phage-1037] | 0.09 | 1.45 |  |  |  |
| YCEGHLAIYQKKCL (Tested as clonal phage supernatant) [Phage-1042] | 0.06 | 1.44 |  |  |  |
| YCAGHTVENMAKCL [Phage-1025] |  |  | 0.07 | 1.48 |  |
| YCDGHNFQYMEKCL (Tested as clonal phage supernatant) [Phage-1048] | 0.06 | 1.44 |  |  |  |
| YCEGHSMEYIQKCL (Tested as clonal phage supernatant) [Phage-1045] | 0.07 | 1.44 |  |  |  |
| YCDGHSAEYLSKCL (tested as crude clonal phage supernatant) [Phage-1011 (Peptide-87 library peptide, SEQ ID NO: 1327)] |  |  |  |  | Anti-CD28 Fab signal in the presence of CD28 (phage binding ELISA) [5]: 0.07 |
| YCSGHLPQYLEKCL (tested as crude clonal phage supernatant) [Phage-1017 (Peptide-87 library peptide, SEQ ID NO: 1333)] |  |  |  |  | Anti-CD28 Fab signal in the presence of CD28 (phage binding ELISA) [5]: 0.31 |
| YCDGHHKEYLLKCL (tested as crude clonal phage supernatant) [Phage-1018 (Peptide-87 library peptide, SEQ ID NO: 1334)] |  |  |  |  | Anti-CD28 Fab signal in the presence of CD28 (phage binding ELISA) [5]: 0.06 |
| YCEGHAVEYMAKCL (Tested as clonal phage supernatant) [Phage-1043] | 0.07 | 1.44 |  |  |  |
| YCDGHVAEYRHKCL [Phage-1027] |  |  | 0.06 | 1.47 |  |
| YCDGHLPEYITKCL [Phage-1023] |  |  | 0.06 | 1.49 |  |
